Measured values from publication PMC11998062, “One-Pot Total Synthesis of a Post-translationally Modified Max Transcription Factor Sheds Light on Ser-Phosphorylation and Lys-Acetylation Crosstalk in DNA Binding”.

B1: E-box DNA probe (dsDNA)
DNA 1: CCGGCTGACACGTGGTATTAAT
DNA 2: ATTAATACCACGTGTCAGCCGG

Columns and labels:
[1] = test system: MaxS2pS11pK31AcK57Ac S2pS;S11pS;K31Ac;K57Ac;M1Nle;M65Nle;M148Nle, P61244-2; experiment: BLI; conditions: EMSA: 10 mM MES pH 6.0, 150 mM KCl, 1 mM MgCl2, 10% glycerol, room temperature 30 min, 8% TBE gel; CD: same buffer; BLI: 1x PBS, 0.1% BSA, 0.02% Tween-20, 65 nM
Chain of MaxS2pS11pK31AcK57Ac S2pS;S11pS;K31Ac;K57Ac;M1Nle;M65Nle;M148Nle, P61244-2 (P61244 whole entry, looked up): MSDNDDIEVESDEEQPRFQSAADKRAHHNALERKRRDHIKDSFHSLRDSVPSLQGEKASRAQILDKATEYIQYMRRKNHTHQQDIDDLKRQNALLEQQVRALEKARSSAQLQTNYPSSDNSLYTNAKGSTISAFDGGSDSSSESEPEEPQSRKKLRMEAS

[2] = molecular target: Max-WT (UniProt P61244-2, M1Nle;M65Nle;M148Nle); experiment: EMSA; 1 uM DNA, 0-8 uM protein, 1 mM MgCl2; EMSA: 10 mM MES pH 6.0, 150 mM KCl, 1 mM MgCl2, 10% glycerol, room temperature 30 min, 8% TBE gel; CD: same buffer; BLI: 1x PBS, 0.1% BSA, 0.02% Tween-20, 65 nM biotinylated DNA loaded (temperature not in material); conditions: tags: C-terminal extra K; chain copies: 2
Chain of Max-WT (P61244 other isoform, or with tags, fused parts or gaps M1Nle;M65Nle;M148Nle): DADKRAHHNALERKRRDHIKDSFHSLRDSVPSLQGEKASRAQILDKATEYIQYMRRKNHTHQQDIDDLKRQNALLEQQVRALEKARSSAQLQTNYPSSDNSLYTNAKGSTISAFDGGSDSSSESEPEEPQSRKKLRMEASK

Row | Molecule | Kd [1] [nM] | binding result [2]
1 | CCGGCTGACACGTGGTATTAAT (double strand) [biotinylated E-box DNA probe] | 1100 | –
2 | B1 | – | binds
